Blank lines part the entries; values can stand above or below the binder they belong to.
Experiments:
Peptide_020 [1] = molecular target: T1, Peptide_020 (human); experiment: peptide microarray, 1 ug/mL
T1 construct: 15-mer of hTrx1 on microarray
T1 peptide: KQIESKTAFQEALDA
Protocol: (§1) 5, 1, 0.2, 0.04, 0.008 and 0.0016 μg/mL serial dilutions were incubated on a single multi-well microarray slide at 30° C. for 1 hour. The slide includes 21 individual mini-arrays (one mini-array per sample dilution).
(§2) DyLight 650 was used as a label. False-positive binding to a peptide was evaluated by performing one additional control incubation in which only a secondary antibody was applied on the same microarray slide. Before performing each step, the microarrays were washed with a washing buffer.

Peptide_093 [2] = molecular target: T2, Peptide_093 (human); experiment: peptide microarray, 1 ug/mL
T2 construct: 15-mer of hTrx1 on microarray
T2 peptide: TFQFFKKGQKVGEFS
Protocol: as §1, §2

Peptide_095 [3] = molecular target: T3, Peptide_095 (human); experiment: peptide microarray, 1 ug/mL
T3 construct: 15-mer of hTrx1 on microarray
T3 peptide: QFFKKGQKVGEFSGA
Protocol: as §1, §2

Peptide_021 [4] = molecular target: T4, Peptide_021 (human); experiment: peptide microarray, 1 ug/mL
T4 construct: 15-mer of hTrx1 on microarray
T4 peptide: QIESKTAFQEALDAA
Protocol: as §1, §2

Peptide_012 [5] = molecular target: T5, Peptide_012 (human); experiment: peptide microarray, 1 ug/mL
T5 construct: 15-mer on microarray; not native form, includes recombinant insert region
T5 peptide: HHHHHHHVKQIESKT
Protocol: as §1, §2

Peptide_086 [6] = molecular target: T6, Peptide_086 (human); experiment: peptide microarray, 1 ug/mL
T6 construct: 15-mer of hTrx1 on microarray
T6 peptide: CEVKCMPTFQFFKKG
Protocol: as §1, §2

Peptide_084 [7] = molecular target: T7, Peptide_084 (human); experiment: peptide microarray, 1 ug/mL
T7 construct: 15-mer of hTrx1 on microarray
T7 peptide: SECEVKCMPTFQFFK
Protocol: as §1, §2

Peptide_094 [8] = molecular target: T8, Peptide_094 (human); experiment: peptide microarray, 1 ug/mL
T8 construct: 15-mer of hTrx1 on microarray
T8 peptide: FQFFKKGQKVGEFSG
Protocol: as §1, §2

Peptide_085 [9] = molecular target: T9, Peptide_085 (human); experiment: peptide microarray, 1 ug/mL
T9 construct: 15-mer of hTrx1 on microarray
T9 peptide: ECEVKCMPTFQFFKK
Protocol: as §1, §2

Peptide_024 [10] = molecular target: T10, Peptide_024 (human); experiment: peptide microarray, 1 ug/mL
T10 construct: 15-mer of hTrx1 on microarray
T10 peptide: SKTAFQEALDAAGDK
Protocol: as §1, §2

Peptide_022 [11] = molecular target: T11, Peptide_022 (human); experiment: peptide microarray, 1 ug/mL
T11 construct: 15-mer of hTrx1 on microarray
T11 peptide: IESKTAFQEALDAAG
Protocol: as §1, §2

Peptide_014 [12] = molecular target: T12, Peptide_014 (human); experiment: peptide microarray, 1 ug/mL
T12 construct: 15-mer on microarray; not native form, includes recombinant insert region
T12 peptide: HHHHHVKQIESKTAF
Protocol: as §1, §2

Peptide_019 [13] = molecular target: T13, Peptide_019 (human); experiment: peptide microarray, 1 ug/mL
T13 construct: 15-mer of hTrx1 on microarray
T13 peptide: VKQIESKTAFQEALD
Protocol: as §1, §2

Peptide_051 [14] = molecular target: T14, Peptide_051 (human); experiment: peptide microarray, 1 ug/mL
T14 construct: 15-mer of hTrx1 on microarray
T14 peptide: PCKMIKPFFHSLSEK
Protocol: as §1, §2

Peptide_018 [15] = molecular target: T15, Peptide_018 (human); experiment: peptide microarray, 1 ug/mL
T15 construct: 15-mer on microarray; not native form, includes recombinant insert region; also called HVKQIESKTAFQEAL
T15 peptide: HVKQIESKTAFQEAL
Protocol: as §1, §2

Peptide_021 [16] = molecular target: T4, Peptide_021; experiment: peptide microarray, head 0.08 ug (text 0.008 ug/mL)
Protocol: as §1, §2

Peptide_023 [17] = molecular target: T16, Peptide_023 (human); experiment: as above
T16 construct: 15-mer of hTrx1 on microarray
T16 peptide: ESKTAFQEALDAAGD
Protocol: as §1, §2

Peptide_051 [18] = molecular target: T14, Peptide_051; experiment: as above
Protocol: as §1, §2

Peptide_020 [19] = molecular target: T1, Peptide_020; experiment: peptide microarray, 5 ug/mL
Protocol: as §1, §2

Peptide_093 [20] = molecular target: T2, Peptide_093; experiment: peptide microarray, 5 ug/mL
Protocol: as §1, §2

Peptide_095 [21] = molecular target: T3, Peptide_095; experiment: peptide microarray, 5 ug/mL
Protocol: as §1, §2

Peptide_013 = molecular target: T17, Peptide_013 (human); experiment: peptide microarray, 5 ug/mL
T17 construct: 15-mer on microarray; not native form, includes recombinant insert region
T17 peptide: HHHHHHVKQIESKTA
Protocol: as §1, §2

Peptide_021 [22] = molecular target: T4, Peptide_021; experiment: peptide microarray, 5 ug/mL
Protocol: as §1, §2

Peptide_092 = molecular target: T18, Peptide_092 (human); experiment: peptide microarray, 5 ug/mL
T18 construct: 15-mer of hTrx1 on microarray
T18 peptide: PTFQFFKKGQKVGEF
Protocol: as §1, §2

Peptide_012 [23] = molecular target: T5, Peptide_012; experiment: peptide microarray, 5 ug/mL
Protocol: as §1, §2

Peptide_086 [24] = molecular target: T6, Peptide_086; experiment: peptide microarray, 5 ug/mL
Protocol: as §1, §2

Peptide_084 [25] = molecular target: T7, Peptide_084; experiment: peptide microarray, 5 ug/mL
Protocol: as §1, §2

Peptide_045 = molecular target: T19, Peptide_045 (human); experiment: peptide microarray, 5 ug/mL
T19 construct: 15-mer of hTrx1 on microarray
T19 peptide: SATWCGPCKMIKPFF
Protocol: as §1, §2

Peptide_094 [26] = molecular target: T8, Peptide_094; experiment: peptide microarray, 5 ug/mL
Protocol: as §1, §2

Peptide_025 = molecular target: T20, Peptide_025 (human); experiment: peptide microarray, 5 ug/mL
T20 construct: 15-mer of hTrx1 on microarray
T20 peptide: KTAFQEALDAAGDKL
Protocol: as §1, §2

Peptide_023 [27] = molecular target: T16, Peptide_023; experiment: peptide microarray, 5 ug/mL
Protocol: as §1, §2

Peptide_085 [28] = molecular target: T9, Peptide_085; experiment: peptide microarray, 5 ug/mL
Protocol: as §1, §2

Peptide_015 = molecular target: T21, Peptide_015 (human); experiment: peptide microarray, 5 ug/mL
T21 construct: 15-mer on microarray; not native form, includes recombinant insert region
T21 peptide: HHHHVKQIESKTAFQ
Protocol: as §1, §2

Peptide_024 [29] = molecular target: T10, Peptide_024; experiment: peptide microarray, 5 ug/mL
Protocol: as §1, §2

Peptide_022 [30] = molecular target: T11, Peptide_022; experiment: peptide microarray, 5 ug/mL
Protocol: as §1, §2

Peptide_014 [31] = molecular target: T12, Peptide_014; experiment: peptide microarray, 5 ug/mL
Protocol: as §1, §2

Peptide_019 [32] = molecular target: T13, Peptide_019; experiment: peptide microarray, 5 ug/mL
Protocol: as §1, §2

Peptide_051 [33] = molecular target: T14, Peptide_051; experiment: peptide microarray, 5 ug/mL
Protocol: as §1, §2

Peptide_018 [34] = molecular target: T15, Peptide_018; experiment: peptide microarray, 5 ug/mL
Protocol: as §1, §2

Peptide_004 [35] = molecular target: T22, Peptide_004 (human); experiment: peptide microarray, head 0.08 ug (text 0.008 ug/mL)
T22 construct: 15-mer on microarray; not native form, recombinant insert region
T22 peptide: AADVHSQHHHHHHHH
Protocol: as §1, §2

Peptide_005 = molecular target: T23, Peptide_005 (human); experiment: peptide microarray, 5 ug/mL
T23 construct: 15-mer on microarray; not native form, recombinant insert region
T23 peptide: ADVHSQHHHHHHHHV
Protocol: as §1, §2

Peptide_004 [36] = molecular target: T22, Peptide_004; experiment: peptide microarray, 5 ug/mL
Protocol: as §1, §2

signal (blank-control = 1) (Peptide_020 [1]): 2.3
signal (blank-control = 1) (Peptide_093 [2]): 5.33
signal (blank-control = 1) (Peptide_095 [3]): 3.52
signal (blank-control = 1) (Peptide_021 [4]): 2.48
signal (blank-control = 1) (Peptide_012 [5]): 3.65
signal (blank-control = 1) (Peptide_086 [6]): 1.56
signal (blank-control = 1) (Peptide_084 [7]): 3.26
signal (blank-control = 1) (Peptide_094 [8]): 3.26
signal (blank-control = 1) (Peptide_085 [9]): 3.56
signal (blank-control = 1) (Peptide_024 [10]): 6.5
signal (blank-control = 1) (Peptide_022 [11]): 5.88
signal (blank-control = 1) (Peptide_014 [12]): 6.71
signal (blank-control = 1) (Peptide_019 [13]): 1.67
signal (blank-control = 1) (Peptide_051 [14]): 3.91
signal (blank-control = 1) (Peptide_018 [15]): 5.52
signal (blank-control = 1) (Peptide_021 [16]): 0.84
signal (blank-control = 1) (Peptide_023 [17]): 0.91
signal (blank-control = 1) (Peptide_051 [18]): 0.7
signal (blank-control = 1) (Peptide_020 [19]): 2.41
signal (blank-control = 1) (Peptide_093 [20]): 6.18
signal (blank-control = 1) (Peptide_095 [21]): 3.44
signal (blank-control = 1) (Peptide_013): 4.87
signal (blank-control = 1) (Peptide_021 [22]): 2.69
signal (blank-control = 1) (Peptide_092): 6.78
signal (blank-control = 1) (Peptide_012 [23]): 4.49
signal (blank-control = 1) (Peptide_086 [24]): 1.9
signal (blank-control = 1) (Peptide_084 [25]): 3.79
signal (blank-control = 1) (Peptide_045): 4.9
signal (blank-control = 1) (Peptide_094 [26]): 4.13
signal (blank-control = 1) (Peptide_025): 6.49
signal (blank-control = 1) (Peptide_023 [27]): 1.26
signal (blank-control = 1) (Peptide_085 [28]): 3.87
signal (blank-control = 1) (Peptide_015): 5.96
signal (blank-control = 1) (Peptide_024 [29]): 6.09
signal (blank-control = 1) (Peptide_022 [30]): 5.54
signal (blank-control = 1) (Peptide_014 [31]): 6.9
signal (blank-control = 1) (Peptide_019 [32]): 1.98
signal (blank-control = 1) (Peptide_051 [33]): 4.28
signal (blank-control = 1) (Peptide_018 [34]): 6.15
B1: monoclonal antibody B264 (antibody, mouse IgG1, kappa, V domains shown)
VH: QVQLQQSGAELARPGASVKMSCKASGYTFTSYTMHWVKQRPGQGLEWIGYINPTSDYTNYNQKFKDKATLTADKSSSTAYMQLSSLTSEDSAVYFCASEGGFLYYFDYWGQGTTLTVSS
VL: DVLMTQTPLSLPVSLGDQASISCRSSQSIVHSNGNTYLEWYLQKPGQSPKLLIYKVSNRFSGVPDRFSGSGSGTDFTLKISRVEAEDLGVYYCFQGSHVPYTFGGGTKLEIKR
notes: also called AB264; B264 (Trx1-mIgG1)

signal (blank-control = 1) (Peptide_004 [35]): 1
signal (blank-control = 1) (Peptide_005): 7.63
signal (blank-control = 1) (Peptide_004 [36]): 6.78
B2: monoclonal antibody B266-1 (antibody, human IgG1)
light: QIVLTQSPAIMSASPGEKVTMTCSASSRISYMYWYQQKPGTSPKRWIYDTSKLASGVPARFSGSGSGTSYSLTISTMEAEDAATYYCHQRSSYPTFGAGTKLELKSVAAPSVFIFPPSDEQLKSGTASVVCLLNNFYPREAKVQWKVDNALQSGNSQESVTEQDSKDSTYSLSSTLTLSKADYEKHKVYACEVTHQGLSSPVTKSFNRGEC
heavy: not shown
notes: B266 with the Fc part changed to human IgG1; also called B266-1 (Trx1-hIgG1); B266-1 (hTrx1-hIgG1)
